The record followed here is paper PMC9891256.

This experiment concerns the target KREPA2 αH1 group mutant of the negatively charged glutamic and aspartic acid residues (to alanine) (T. brucei). As to the kind of experiment: pull-down.

With “kinetoplastid RNA editing ligase 1 (KREL1) full-length (51-469) (enzyme)”, the decrease in binding efficiency against the wild type was determined as 75%.
